B1: Ap3 hairpin oligo (dsDNA)
DNA: GGTTACTTCTTCAACTCCATCGGGTTTTCCCGATGGAGTTGAAGAAGTAACC
B2: m12 hairpin oligo (dsDNA)
DNA: GGAGCCTCCTTCCTCCTCTCACTCGGGTTTTCCCGAGTGAGAGGAGGAAGGAGGCTCC

Tests used:
[1] = target: T1, ZFPm2 six-finger zinc finger protein (Sp1C framework) (artificial); assay: ELISA, 15.5 ug/ml protein, non-target; conditions: tags: MBP fusion (pMAL-C2), E. coli, hairpin
Protocol: (§1) Coat ELISA plates (Costar 3690) with streptavidin. Use 25 ul/well of 8 ug/ml streptavidin in PBS. Incubate at 37° C. for 1 hr. Wash 2× with dH2O. Bind wells with 25 ul/well of 4 ng/ul biotinylated target oligonucleotide in PBS. Incubate at 37° C. for 1 hr. Wash 2× with dH2O. Block with 175 ul/well of 3% BSA in Zn Buffer A. Incubate at 37° C. for 1 hr. Tap plates dry. Perform 1:2 serial dilutions of extract in Binding Buffer (1%BSA, 5 mM DTT, .12 ug/ul Salmon Sperm DNA in ZnBA). Usually from 1:4 to 1:512 for multi-target ELISA or 1:4 to 1:32 for screening clones for specific DNA binding activity. Incubate 1 hr at room temperature. Wash 8× with dH2O. Add primary antibody: 25 ul/well of 1:1000 dilution of mouse anti-MBP (Sigma M-6295) in 1%BSA ZnBA (no DTT). Incubate 30 min at room temperature. Wash 8× with dH2O. Add secondary antibody: 25 ul/well of 1:1000 dilution of goat anti-mouse/Alkaline Phosphatase (Pierce 31324) in 1%BSA ZnBA (no DTT). Incubate 30 min at room temperature. Wash 8× with dH2O. Develop with 25 ul developer (1 tablet of Sigma 104 Phosphatase Substrate (Sigma 104-105)/5 ml AP Developing Buffer [100 ml diethanolamine+0.05 g MgCl2+97.5 Sodium Azide, adjust to 500 ml with ddH2O, pH 9.88]). Incubate at room temperature for 5-60 min until color reaction is yellow. Read A405 with a plate reader.
(§2) To evaluate the specificity of new zinc finger protein, the affinity of each protein was determined for binding to the target sequence and several non-target sequences at appropriate protein concentration. For example, to protein ZFPm1 and ZFPm2, the non-target oligoes are: Oligo m34 (SEQ ID NO:20), Oligo Ap3 (SEQ ID NO:21), NRI-1 (SEQ ID NO:22), NRI-2 (SEQ ID NO:23), hHD-I (SEQ ID NO:24), hHD-II (SEQ ID NO:25), c5cl-g (SEQ ID NO:26), c5p3-g (SEQ ID NO:27), B3c2 (SEQ ID NO:28), and e2c-g (SEQ ID NO:29). Similarly, to protein ZFPm3 and ZFPm4, the non-target oligoes are Oligo m12 (SEQ ID NO:19), oligo Ap3 (SEQ ID NO:21), and the eight other oligoes. To protein ZFPAp3, the non-target oligoes are Oligo m12, oligo m34 (SEQ ID NO:20), and the eight other oligoes. The affinity reading for target oligo was further normalized to the no oligo control which has the least affinity.

[2] = target: ZFPm4 six-finger zinc finger protein (Sp1C framework) (artificial); assay: ELISA, 15.5 ug/ml protein, non-target; conditions: tags: MBP fusion (pMAL-C2), E. coli, hairpin
Protocol: as §1, §2

[3] = target: T2, ZFPAp3 six-finger zinc finger protein (Sp1C framework) (artificial); assay: ELISA, 31.0 ug/ml protein, non-target; conditions: tags: MBP fusion (pMAL-C2), E. coli, hairpin
Protocol: as §1, §2

[4] = target: T3, ZFPm1 six-finger zinc finger protein (Sp1C framework) (artificial); assay: ELISA, 31.0 ug/ml protein, non-target; conditions: tags: MBP fusion (pMAL-C2), E. coli, hairpin
Protocol: as §1, §2

[5] = target: ZFPm3 six-finger zinc finger protein (Sp1C framework) (artificial); assay: ELISA, 1.9 ug/ml protein, non-target; conditions: tags: MBP fusion (pMAL-C2), E. coli, hairpin
Protocol: as §1, §2

[6] = target: T2, ZFPAp3 six-finger zinc finger protein …; assay: ELISA, 31.0 ug/ml protein; conditions: tags: MBP fusion (pMAL-C2), E. coli; label: 5'-biotin (ELISA); 32P (gel shift); hairpin
Protocol: as §1, with “Develop with 25 ul developer (1 tablet of Sigma 104 Phosphatase Substrate (Sigma 104-105)/5 ml AP Developing Buffer [100 ml diethanolamine+0.05 g MgCl2+97.5 Sodium Azide, adjust to 500 ml with ddH2O, pH 9.88]). Incubate at room temperature for 5-60 min until color reaction is yellow.” left out
(§3) To evaluate the specificity of new zinc finger protein, the affinity of each protein was determined for binding to the target sequence and several non-target sequences at appropriate protein concentration. […] The affinity reading for target oligo was further normalized to the no oligo control which has the least affinity.

[7] = target: T2, ZFPAp3 six-finger zinc finger protein …; assay: EMSA; Zn Buffer A, 10% glycerol, 0.8% BSA, salmon sperm DNA, room temp; conditions: tags: MBP fusion (pMAL-C2), E. coli; label: 5'-biotin (ELISA); 32P (gel shift); hairpin
Protocol: (§4) The affinity of the purified six-finger proteins was measured using gel shift assay. The target oligos used in the ELISA assays were radioactively labeled using [γ32P]-ddATPk and terminal transferase. Ten serial dilutions of 1:3 with the purified protein (starting with ˜1 mg/ml) in binding buffer (1 pM labeled oligo, 10% Glycerol, 0.8% BSA, 0.1 ug/ul salmon sperm DNA in Zn Buffer A) were performed. The ZFP was allowed to bind at room temperature for 1 hr. The samples were then run on 5-6% non-denaturing PAGE gel in TBE. The gel was dried and exposed with Phosphoimager. The affinity (Kd) of the ZFP was calculated from this gel. The Kd value is the concentration of the protein at which half of the labeled oligo is shifted to a higher molecular weight on the gel by binding to the ZFP. […] Most of these affinities compare favorably with the existed 6 finger proteins.

[8] = target: T3, ZFPm1 six-finger zinc finger protein …; assay: ELISA, 31.0 ug/ml protein; conditions: tags: MBP fusion (pMAL-C2), E. coli; label: 5'-biotin (ELISA); 32P (gel shift); hairpin
Protocol: as §1, with “Develop with 25 ul developer (1 tablet of Sigma 104 Phosphatase Substrate (Sigma 104-105)/5 ml AP Developing Buffer [100 ml diethanolamine+0.05 g MgCl2+97.5 Sodium Azide, adjust to 500 ml with ddH2O, pH 9.88]). Incubate at room temperature for 5-60 min until color reaction is yellow.” left out
as §3

[9] = target: T1, ZFPm2 six-finger zinc finger protein …; assay: ELISA, 15.5 ug/ml protein; conditions: tags: MBP fusion (pMAL-C2), E. coli; label: 5'-biotin (ELISA); 32P (gel shift); hairpin
Protocol: as §1, with “Develop with 25 ul developer (1 tablet of Sigma 104 Phosphatase Substrate (Sigma 104-105)/5 ml AP Developing Buffer [100 ml diethanolamine+0.05 g MgCl2+97.5 Sodium Azide, adjust to 500 ml with ddH2O, pH 9.88]). Incubate at room temperature for 5-60 min until color reaction is yellow.” left out
as §3

[10] = target: T1, ZFPm2 six-finger zinc finger protein …; assay: EMSA; Zn Buffer A, 10% glycerol, 0.8% BSA, salmon sperm DNA, room temp; conditions: tags: MBP fusion (pMAL-C2), E. coli; label: 5'-biotin (ELISA); 32P (gel shift); hairpin
Protocol: as §4

[11] = target: T3, ZFPm1 six-finger zinc finger protein …; assay: as above; conditions: tags: MBP fusion (pMAL-C2), E. coli; label: 5'-biotin (ELISA); 32P (gel shift); hairpin
Protocol: as §4

[12] = label: 5'-biotin (ELISA), 32P (gel shift)

T3 sequence (chain, as listed by the source): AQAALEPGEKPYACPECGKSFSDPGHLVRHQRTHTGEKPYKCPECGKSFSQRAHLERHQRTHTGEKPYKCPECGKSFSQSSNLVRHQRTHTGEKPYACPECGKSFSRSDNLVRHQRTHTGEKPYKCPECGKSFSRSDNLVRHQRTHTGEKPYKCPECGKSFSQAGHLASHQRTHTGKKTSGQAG
T2 sequence (chain, as listed by the source): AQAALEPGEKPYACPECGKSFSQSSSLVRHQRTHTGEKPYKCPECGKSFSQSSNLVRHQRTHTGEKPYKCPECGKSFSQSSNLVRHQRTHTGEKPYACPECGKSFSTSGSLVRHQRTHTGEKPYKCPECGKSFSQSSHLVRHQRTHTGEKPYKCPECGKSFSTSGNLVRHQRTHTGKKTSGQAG
ZFPm3 six-finger zinc finger protein (Sp1C framework) (artificial), sequence (chain, as listed by the source): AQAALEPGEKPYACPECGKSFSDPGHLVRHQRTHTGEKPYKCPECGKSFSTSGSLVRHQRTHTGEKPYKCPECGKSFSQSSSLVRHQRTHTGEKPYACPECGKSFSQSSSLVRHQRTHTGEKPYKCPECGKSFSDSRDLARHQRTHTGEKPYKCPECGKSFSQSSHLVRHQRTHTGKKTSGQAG
T1 sequence (chain, as listed by the source): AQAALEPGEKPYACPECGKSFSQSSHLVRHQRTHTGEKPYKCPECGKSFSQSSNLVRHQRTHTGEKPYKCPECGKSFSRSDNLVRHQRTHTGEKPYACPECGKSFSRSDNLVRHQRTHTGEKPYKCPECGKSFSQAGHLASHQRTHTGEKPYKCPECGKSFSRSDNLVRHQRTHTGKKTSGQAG
ZFPm4 six-finger zinc finger protein (Sp1C framework) (artificial), sequence (chain, as listed by the source): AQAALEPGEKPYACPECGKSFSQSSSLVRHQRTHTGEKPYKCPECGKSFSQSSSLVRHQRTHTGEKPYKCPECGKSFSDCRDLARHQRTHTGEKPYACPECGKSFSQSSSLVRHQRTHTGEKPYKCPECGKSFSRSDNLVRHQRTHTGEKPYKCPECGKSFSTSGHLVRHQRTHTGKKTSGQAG

Binder	binding signal ([1]; label: 5'-biotin) [fold over no oligo]	binding signal ([2]; label: 5'-biotin) [fold over no oligo]	binding signal ([3]; label: 5'-biotin) [fold over no oligo]	binding signal ([4]; label: 5'-biotin) [fold over no oligo]	binding signal ([5]; label: 5'-biotin) [fold over no oligo]	other results
GGGACACCCCCAACCCCGCCGGGTTTTCCCGGCGGGGTTGGGGGTGTCCC (dsDNA) [c5c1-g]	5	3	2	7	3	
GGGGCAGCCCCCACGGCGCCGGGTTTTCCCGGCGCCGTGGGGGCTGCCCC (dsDNA) [hHD-II]	2	2	2	4	3	
GGCACTGCGGCTCCGGCCCCGGGTTTTCCCGGGGCCGGAGCCGCAGTGCC (dsDNA) [e2c-g]	2	5	3	2	9	
B1						binding signal [6]: 27 fold over no oligo; binding signal [1, 12]: 3 fold over no oligo; binding signal [2, 12]: 2 fold over no oligo; binding signal [4, 12]: 4 fold over no oligo; binding signal [5, 12]: 7 fold over no oligo; Kd [7]: 2.3 nM
B2						binding signal [8]: 18 fold over no oligo; binding signal [2, 12]: 4 fold over no oligo; binding signal [3, 12]: 14 fold over no oligo; binding signal [5, 12]: 3 fold over no oligo; binding signal [9]: 23 fold over no oligo; Kd [10]: 7.5 nM; Kd [11]: 2 nM
GGTTCTACCCCTCCCACCGCGGGTTTTCCCGCGGTGGGAGGGGTAGAACC (dsDNA) [NRI-1]	7	5	8	5	4	
GGGGCCCCGCCTCCGCCGGCGGGTTTTCCCGCCGGCGGAGGCGGGGCCCC (dsDNA) [hHD-I]	3	2	2	5	1	

— patent publication US20030037355, “Methods and compositions to modulate expression in plants” (published 2003)
